Data taken from patent US20190117753A1 (VIRGINIA COMMONWEALTH UNIVERSITY, published 2019).

Target: T1, sLe^x-capped PSGL-1 on transfected Chinese hamster ovary cells (PSGL-1 CHO cells) (UniProt Q14242 42-412, sLe^x-capped (sialylated and fucosylated) glycans (so in the source))
T1 construct: whole, on cells; also called sialylated PSGL-1; sLe^x-modified PSGL-1
T1 sequence: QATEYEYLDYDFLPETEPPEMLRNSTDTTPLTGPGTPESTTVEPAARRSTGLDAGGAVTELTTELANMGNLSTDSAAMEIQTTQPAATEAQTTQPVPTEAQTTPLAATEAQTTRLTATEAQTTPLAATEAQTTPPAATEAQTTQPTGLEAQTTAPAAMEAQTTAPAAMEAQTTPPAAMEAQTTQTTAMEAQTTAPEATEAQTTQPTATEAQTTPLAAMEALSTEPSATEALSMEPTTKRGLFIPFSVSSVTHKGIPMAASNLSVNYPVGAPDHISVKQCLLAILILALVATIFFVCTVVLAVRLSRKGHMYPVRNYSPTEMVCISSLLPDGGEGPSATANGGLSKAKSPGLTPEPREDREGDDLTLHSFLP
Experiment: PSGL-1 CHO cells preincubated with GST-OmpA; competitor: Aph organisms (data not shown)

B1: GST-OmpA (N-terminal glutathione-S-transferase-tagged A. phagocytophilum OmpA, excluding the signal sequence) (other)
chain: CGTLLPDSNVGVGRHDLGSHRSVAFAKKVEKVYFDIGKYDLKGPGKKVILELVEQLRQDDSMYLVVIGHADATGTEEYSLALGEKRANAVKQFIIGCDKSLAPRVTTQSRGKAEPEVLVYSTDAQEVEKANAQNRRAVIVVEFAHIPRSGVADMHAPVASSITSENSNASAEGEDMEASEFSSAIAN
notes: also called GST-ApOmpA; GST-tagged Aph OmpA; not shown: glutathione-S-transferase (GST) tag, N-terminal, from the pDest-15 vector
  reduction of Aph binding to sLe^x-modified PSGL-1 relative to GST alone: ~60%
